Article PMC4044012, “Genome-Based Discovery of a Novel Membrane-Bound 1,6-Dihydroxyphenazine Prenyltransferase from a Marine Actinomycete” (PLoS ONE, 2014)

Columns and labels:
Test in all cases: prenyltransferase assay with E. coli membrane fraction, HPLC-UV product quantification
Mpz10 = biological target: T1, Mpz10 (Streptomyces sp. SpC080624SC-11, UniProt A0A068CM06); type: biochemical; settings: read-out: apparent Km; DMAPP co-substrate, 10 mM MgCl2, 50 mM Tris-HCl pH 8.1, 30°C
T1 construct: NcoI/EcoRI in pET-28a(+) (pPH23), apparently untagged; E. coli Rosetta2(DE3)pLysS membrane fraction
T1 sequence (A0A068CM06 1-331): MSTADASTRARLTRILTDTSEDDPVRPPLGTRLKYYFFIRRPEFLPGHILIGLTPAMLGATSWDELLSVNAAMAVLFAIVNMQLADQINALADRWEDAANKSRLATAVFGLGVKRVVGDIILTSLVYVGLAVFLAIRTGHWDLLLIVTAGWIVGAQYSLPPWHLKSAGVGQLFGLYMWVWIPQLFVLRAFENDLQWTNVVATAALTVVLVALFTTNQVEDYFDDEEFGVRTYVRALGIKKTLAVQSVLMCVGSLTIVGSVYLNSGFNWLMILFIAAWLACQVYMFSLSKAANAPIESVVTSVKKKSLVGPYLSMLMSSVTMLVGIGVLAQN

[1] = substrate: CC(C)=CCOP(=O)(O)OP(=O)(O)O; type: biochemical, Streptomyces sp. SpC080624SC-11; settings: 0.2 mM 1,6-dihydroxyphenazine constant, 10 mM MgCl2, 50 mM Tris-HCl pH 8.1, 30°C
[2] = substrate: Oc1cccc2nc3c(O)cccc3nc12; type: biochemical, Streptomyces sp. SpC080624SC-11; settings: 0.5 mM DMAPP constant, 10 mM MgCl2, 50 mM Tris-HCl pH 8.1, 30°C

Oc1cccc2nc3ccccc3nc12 [1-hydroxyphenazine]
Km (Mpz10): 9.8 µM

B1: Mpz10 (Streptomyces sp. SpC080624SC-11) (protein)
chain: T1 sequence (A0A068CM06 1-331)
notes: NcoI/EcoRI in pET-28a(+) (pPH23), apparently untagged; E. coli Rosetta2(DE3)pLysS membrane fraction
Km [1]: 153 µM
Km [2]: 53 µM
